Ends that are not written are not given here.
Key:
[1] = target: T1, native Tau protein (monomeric form) (Homo sapiens (Human), UniProt P10636 2-758); assay: ELISA, 2C5 titrated on native Tau (Tau-N)
T1 construct: also called Tau-N (native taus); Tau in monomer form

[2] = target: T2, truncated Tau protein in fiber form (polymerized R3 peptide) (also: polymerized (fiber form)); assay: ELISA, unlabeled 2C5 titrated on polymers of the R3 sequence of Tau (R3 Fibers), PBS with 1% BSA, pH 7.5; PBS wells as control
T2 construct: also called R3 peptide fibers; Mimetics (the R3 region of polymerized Tau)
T2 peptide: VQIVYKPVDLSKVTSKCG
Protocol: (§1) The ELISAs are carried out before (FIG. 5) and after (FIG. 6) radiolabeling. It is noted that, after radiolabeling, the ligand retains good affinity for its target (FIG. 6).

[3] = target: T3, Tau protein in oligomer form (preparation of htau40 enriched with Tau oligomers, 48 h fibrillation with … (Homo sapiens (Human), UniProt P10636 2-758)); assay: ELISA, 2C5 titrated on a preparation enriched with Tau oligomers (Tau-O)
T3 construct: Oligomeric aggregate of full-length htau40; also called the oligomers; low-molecular-weight tau polymers
T3 sequence (P10636 other isoform, or with tags, fused parts or gaps limits assumed): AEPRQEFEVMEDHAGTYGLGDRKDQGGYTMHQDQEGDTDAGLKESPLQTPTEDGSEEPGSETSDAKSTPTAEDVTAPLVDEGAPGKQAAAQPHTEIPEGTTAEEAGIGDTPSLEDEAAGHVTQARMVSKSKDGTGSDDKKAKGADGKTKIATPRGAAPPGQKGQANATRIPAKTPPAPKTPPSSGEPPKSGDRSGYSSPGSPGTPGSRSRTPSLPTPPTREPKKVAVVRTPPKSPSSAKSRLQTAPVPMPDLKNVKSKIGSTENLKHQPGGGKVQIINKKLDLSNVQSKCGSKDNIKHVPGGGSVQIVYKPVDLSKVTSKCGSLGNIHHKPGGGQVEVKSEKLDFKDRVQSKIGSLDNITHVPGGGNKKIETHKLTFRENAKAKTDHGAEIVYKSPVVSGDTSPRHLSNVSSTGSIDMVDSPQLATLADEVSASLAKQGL

[4] = target: T4, Tau protein in fiber form (preparation of htau40 enriched with Tau fibers, 72 h fibrillation with heparin) (Homo sapiens (Human), UniProt P10636 2-758); assay: ELISA on preparation enriched with Tau fibers
T4 construct: Fibrillar aggregate of full-length htau40; also called Tau-F (Tau fibers); the fibers
T4 sequence (P10636 other isoform, or with tags, fused parts or gaps limits assumed): as above

[5] = target: T4, Tau protein in fiber form (preparation …); assay: ELISA, 2C5 titrated on a preparation enriched with Tau fibers (Tau-F)
[6] = target: T2, truncated Tau protein in fiber form …; assay: ELISA on polymerized R3 peptide
[7] = target: T2, truncated Tau protein in fiber form …; assay: ELISA, 2C5 titrated on polymerized R3 peptide (Mimes)
[8] = target: T3, Tau protein in oligomer form …; assay: ELISA on preparation enriched with Tau oligomers
[9] = target: T2, truncated Tau protein in fiber form …; assay: ELISA-format assay with 2C5 radiolabeled with iodine 125 on polymers of the R3 sequence of Tau, CPM readout (sheet title: RIA 125I 2C5), PBS with 1% BSA, pH 7.5; PBS wells as control
Protocol: as §1

T1 sequence (P10636 other isoform, or with tags, fused parts or gaps limits assumed): as above

Row | Binder | Kd [1] | Kd [2] | Kd [3] | Kd [4] | Kd [5] | Kd [6] | EC50 (read off the curve) [7] | Kd [7] | Kd [8] | Kd [9]
1 | 2C5 nanobody (VHH) with C-terminal myc and six histidine residues tag (VHH, also called 2C5 Nb; 2C5 (VHH)) VHH: QVQLVQSGGGLVQAGGSLRLSCAASGRTFSSDTLAWFRQAPGKEREFVASISPSGGVTYYEDSVKGRFTISRDNSKNTVLLQMNSLTPEDTAVYYCNRDPKYGNTRYWGQGTQVTVSS | 1790 nM | 14.4 nM | 6.28 nM | 6 nM | 5.02 nM | 50 nM | ~50 nM | 51.8 nM | 5 nM | –
2 | 2C5 nanobody radiolabeled with iodine 125 (VHH, radiolabeled with iodine 125 (site not stated)) VHH: QVQLVQSGGGLVQAGGSLRLSCAASGRTFSSDTLAWFRQAPGKEREFVASISPSGGVTYYEDSVKGRFTISRDNSKNTVLLQMNSLTPEDTAVYYCNRDPKYGNTRYWGQGTQVTVSS | – | – | – | – | – | – | – | – | – | 162 nM

— US20190263898A1 (UNIVERSITE GRENOBLE ALPES, published 2019)
